Test [1] deals with T1, SARS-COV2 Spike RBD, Beta (SARS-CoV-2, UniProt P0DTC2 319-541).
T1 construct: domain: RBD
Nature of the test: SPR; 'N/A indicates a lack of binding'.

Test [2] has as its target T2, SARS-COV2 Spike RBD, Delta (SARS-CoV-2, UniProt P0DTC2 319-541).
T2 construct: domain: RBD
Nature of the test: SPR; 'N/A indicates a lack of binding'.

B1: AI-Designed Binder (de novo casirivimab HCDR3 variant) (Fab, V domains shown)
VH: QVQLVESGGGLVKPGGSLRLSCAASGFTFSDYYMSWIRQAPGKGLEWVSYITYSGSTIYYADSVKGRFTISRDNAKSSLYLQMNSLRAEDTAVYYCARDWGQTWDSYFDYWGQGTLVTVSS
VL: DIQMTQSPSSLSASVGDRVTITCQASQDITNYLNWYQQKPGKAPKLLIYAASNLETGVPSRFSGSGSGTDFTFTISGLQPEDIATYYCQQYDNLPLTFGGGTKVEIKR
notes: Fab format
As to B1, the binding result in test [1] and in test [2] was “no binding” in each case.

The values are drawn from patent US20250218531A1 (ABSCI, published 2025).
